Results taken from publication PMC4470572 (Nature communications, 2014).

Target: the molecule itself
Test: single-molecule photobleaching step analysis

B1: DIC1-eGFP-3xFLAG (dynein intermediate chain 1) (natural protein, mouse, UniProt O88485 1-628, looked up)
chain: MSDKSDLKAELERKKQRLAQIREEKKRKEEERKKKEADMQQKKEPVQDDSDLDRKRRETEALLQSIGISPEPPLVPTPMSPSSKSVSTPSDAGSQDSGDLGPLTRTLQWDTDPSVLQLQSDSELGRRLHKLGVSKVTQVDFLPREVVSYSKETQTPLATHQSEEDEEDEEMVEPKIGHDSELENQEKKQETKEAPPRELTEEEKQQILHSEEFLIFFDRTIRVIERALAEDSDIFFDYSGRELEEKDGDVQAGANLSFNRQFYDEHWSKHRVVTCMDWSLQYPELMVASYSNNEDAPHEPDGVALVWNMKFKKTTPEYVFHCQSSVMSVCFARFHPNLVVGGTYSGQIVLWDNRSHRRTPVQRTPLSAAAHTHPVYCVNVVGTQNAHNLITVSTDGKMCSWSLDMLSTPQESMELVYNKSKPVAVTGMAFPTGDVNNFVVGSEEGTVYTACRHGSKAGIGEVFEGHQGPVTGINCHMAVGPIDFSHLFVTSSFDWTVKLWTTKHNKPLYSFEDNADYVYDVMWSPVHPALFACVDGMGRLDLWNLNSDTEVPTASVAIEGASALNRVRWAQGGKEVAVGDSEGRIWIYDVGELAVPHNDEWTRFARTLVEIRANRADSEEEGAVELAA
stoichiometry N: 2
